Data published in the nanobody polyreactivity screen of Harvey et al. (2022).

Test: yeast display, Sf9 membrane polyspecificity reagent, FACS + sequencing; frameworks hold sequencing errors
Outline: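 A synthetic nanobody library was expressed on Saccharomyces cerevisiae BJ5465 by galactose induction for 36–48 hours. The library was stained for 1 hour at 4 °C with 10% biotinylated, detergent-solubilized Sf9 membrane reagent and enriched with streptavidin microbeads before FACS. Low and high (top ~1%) gates were set on anti-HA fluorescence for expression and streptavidin fluorescence for reagent binding, and each polyreactivity label reflects the gate of origin.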

Sequence | polyreactivity (PSR sort gate)
PVQLVESGGGLVQAGGSLRLSCAASGFIFDSYPMGWYRQAPGKERELVAAISYSAGSTSYADSVKGRFTISRDNAKNTVYLQMKSLKPEDTAVYYCNARYYPLYSNSYDSWGQGTQVTVSS | low polyreactivity
PVQLVESGGGLVQAGGSLRLSCAASGFIFYLYAMGWYRQAPGKERELVASINVSGASTRYADSVKGRFTISRDNSKNTVYLQMKSLKPEDTAVYYCAAAITELYFEAYYYWGQGTQVTVSS | low polyreactivity
PVQLVESGGGLVQAGGSLRLSCAASGFIFYYNTMGSYRQAPGKERELVAAINSGGSTYYADSVKGRFTISRDNAKNTVYLQMNSLKPEDTAVYYCAKRYAVSSGYYYWGQGTQVTVSS | high polyreactivity
PVQLVESGGGLVQAGGSLRLSCAASGFIYPRYAMGWYRQAPGKEREVVAAISYSGGSTYYADSVKGRFTISRDNAKNTVYLQMNSLKPEDTAVYYCAARLFKDSWMDYWGQGTQVTVSS | high polyreactivity
PVQLVESGGGLVQAGGSLRLSCAASGFTFDRYAMGWYRQAPGKERELVAAISRSGATTYYADSVKGRFTISRDNAKNTVYLQMNSLKPEDTAVYYCNADDVWYEYDYWGQGTQVTVSS | high polyreactivity
PVQLVESGGGLVQAGGSLRLSCAASGFTFYSYAMGWYRQAPGKEREFVAAGSTYYADSVKGRFTISRDNAKNTVYLQMNSLKPEDTAVYYCAADPWIYVQSYGFWGQGTQVTVSS | low polyreactivity
PVQLVESGGGLVQAGGSLRLSCAASGIIFSDYAMGWYRQGPGKERELVAAITGGVSKYYADSVKGRFTISRDNAKNTVYLQMNSLKPEDTAVYYCNTDAWLETPVSGYSWGQGTQVTVSS | low polyreactivity
PVQLVESGGGLVQAGGSLRLSCAASGRIFVYNVMGWSRQATGKERELVAASRWSGGSTYADSVNGRYTISRDQAKNPVYLQIHSLKPEDTADYYCAARHYRRGDSWAQGTQVTVSS | high polyreactivity
PVQLVESGGGLVQAGGSLRLSCAASGRTFRSNCMGWYRQAPAKERDLVATISEGGGSTYYADSVKGRFTISRDHAKNNVYLQMNSLKTEYTAVYYCAADKWYVLHYLDMNYWGQGTQVTVSA | high polyreactivity
PVQLVESGGGLVQAGGSLRLSCAASGRTFYAFDMGWSRQAPGKERELVSRITSGGSTDYADSVKGRFTSSRDNAKNTVYLQMNSLKPEDTAVYYCAAETSYAVSTGDHFDYWGQGTQVTVSS | high polyreactivity
PVQLVESGGGLVQAGGSLRLSCAASGSTFYPNAMGWYRQAPGKEWELVAASTAGGSTYYADSVKGRFTISRDNAKNTVYLQMTSLKPEDTAVYSCAADFYWYWWQDWYDYWGQGTQVTVSS | high polyreactivity
PVQLVESGGGLVQAGGSLRLTCAASGFTLTSNAMGWYRQAPGKERELVAAISKSGGSTHYADSVKGRFTISRDNAKNTVYLQMNSLKAEDTAVYYCATPYHRRFKGGDYWGQGTQVSVSS | high polyreactivity
PVQLVESGGGLVQAGGSLRVSCAASGSIFYKNAMGWYRQAPGKEREMVAAITSSGGRTYYADSVKGRFTISRDNPKNTVYLQMNSLKPEDTAVFYCAAVYGYDKYDSWGLGTQVTVSS | low polyreactivity
PVQLVESGGGLVQEGGSLRLICAASGRTFYGYAMGCYRPAPGKEREFVAAINSSGGTTYYADSVKGRCTISRDNAKNTVYRAMNSVKPEDTAFSYCAAVYSRIRRWPGYNAYDYWGHGTQVTVSS | high polyreactivity
PVQLVESGGGVVQAGGSLRLSCAASGSTFEYYAMGWYRQAPGKERELVAAITRRGGSTYSADSVKGRFTISRDNAKNTVYVQMNSLKPEDTAVYYCAAKGFPRSGYPYQAQHMYYWGQGTQVTVSS | low polyreactivity
PVQLVVSGGGLVQAGGSLRLSWAASGLIFRYYAMGWYRQAPGKERELVATIRGGGSTYYADSVKGRFTISRDKAKNTVTLQMNSLKPEATAVDYSAADPYSYGARGARGDYWGQGTQGTVSS | low polyreactivity
